Drawing on publication PMC3327659, this text covers binding for 2 sequences.

Series [1] deals with T1, DR2539 (Deinococcus radiodurans R1 (ATCC13939)) (UniProt Q9RRF3).
T1 sequence: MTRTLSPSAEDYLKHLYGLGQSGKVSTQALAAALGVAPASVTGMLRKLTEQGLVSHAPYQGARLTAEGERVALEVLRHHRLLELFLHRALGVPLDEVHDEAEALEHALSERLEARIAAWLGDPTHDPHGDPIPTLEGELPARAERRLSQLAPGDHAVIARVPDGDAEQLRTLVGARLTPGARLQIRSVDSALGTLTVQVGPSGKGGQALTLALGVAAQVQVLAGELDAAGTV
Briefly: EMSA. The conditions noted are these: 30 mM Tris-HCl pH 6.8, 50 mM NaCl, 5% glycerol, 50 ug/mL calf thymus DNA, 50 ug/mL BSA, Mn2+ or Fe2+ (varied), 10 nM FITC-DNA, 30 min at 4 C; 5% native PAGE. Background: In EMSA bound probe runs differently from free probe, usually more slowly.

Series [2] deals with T2, DR0865 (Fur homologue) (Deinococcus radiodurans R1?) (UniProt Q9RW04).
T2 sequence: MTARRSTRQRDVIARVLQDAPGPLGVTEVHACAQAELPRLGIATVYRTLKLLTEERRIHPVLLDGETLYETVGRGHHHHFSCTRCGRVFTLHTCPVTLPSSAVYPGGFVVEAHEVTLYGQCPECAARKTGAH
The series is described as follows: EMSA. The conditions noted are these: 30 mM Tris-HCl pH 6.8, 50 mM NaCl, 5% glycerol, 50 ug/mL calf thymus DNA, 50 ug/mL BSA, Mn2+ or Fe2+ (varied), 10 nM FITC-DNA, 30 min at 4 C; 5% native PAGE.

For the sequence “GAGCCTCTAGCAAATATGTGACAGCACCCTGAAAACCAGATGACCCAGCGTGACGGAATCTGACTGGATCTTGGGAAAGAGGCATTTTTCACAAAAAAGTCGGCCTTTAAGACGAACTCAAGCCCACGCCGTTGGACA (double strand) [p1709a (mntH promoter lacking inverted repeat)]”, the binding result in series [1] is “no binding”.

Consider “CAGGCTGGGAGAACGGGAATCCATGGCCTTTATTTTAGGCGCGACTAAAATAGTTGTCCAACGGCGTGGGCTTGAGTTCGTCTTAAAGGCCGACTTTTTTGTGAAAAATGCCTCTTTCCCAAGATCCAGTCAGATTCCGTCACGCTGGGTCATCTGGTTTTCAGGGTGCTGTCACATATTTGCTAGAGGCTC (double strand) [p1709b (mntH promoter with inverted repeat)]”, for which the binding result in series [1] is given as “binds”; in series [2] it was “no binding”.
